Experiments:
[1] = target: the molecule itself; test: SEC; analytical SEC, SEC-3 HPLC column, HKMC buffer (50 mM HEPES-KOH pH 7.4, 150 mM KCl, 10 mM MgCl2, 1 mM CaCl2), 25 °C; FICD at 20 µM, or 0.2-50 µM after 16 h at 25 °C (Figure S1D-E); approximate Kd of dimer to monomers from elution peak times
[2] = target: T1, biotinylated AviTag-haBiP^V461F(19-654), AMPylated (Chinese hamster, UniProt G3I8R9 19-654, V461F, AMP on Thr518 (AMPylation); biotin on the AviTag); test: BLI; biotinylated AMPylated or unmodified BiP immobilised on streptavidin biosensors; FICD His363Ala variants in solution at 250 nM; HKM plus 0.05% Triton X-100, 30 °C (Figure S2G); settings: both partners purified
T1 construct: Chinese hamster BiP (haBiP), aa 19-654; also called BiP-AMP; AMPylated BiP; not shown: GST, N-terminal, cleaved; AviTag, N-terminal, kept
T1 sequence (G3I8R9 19-654 V461F): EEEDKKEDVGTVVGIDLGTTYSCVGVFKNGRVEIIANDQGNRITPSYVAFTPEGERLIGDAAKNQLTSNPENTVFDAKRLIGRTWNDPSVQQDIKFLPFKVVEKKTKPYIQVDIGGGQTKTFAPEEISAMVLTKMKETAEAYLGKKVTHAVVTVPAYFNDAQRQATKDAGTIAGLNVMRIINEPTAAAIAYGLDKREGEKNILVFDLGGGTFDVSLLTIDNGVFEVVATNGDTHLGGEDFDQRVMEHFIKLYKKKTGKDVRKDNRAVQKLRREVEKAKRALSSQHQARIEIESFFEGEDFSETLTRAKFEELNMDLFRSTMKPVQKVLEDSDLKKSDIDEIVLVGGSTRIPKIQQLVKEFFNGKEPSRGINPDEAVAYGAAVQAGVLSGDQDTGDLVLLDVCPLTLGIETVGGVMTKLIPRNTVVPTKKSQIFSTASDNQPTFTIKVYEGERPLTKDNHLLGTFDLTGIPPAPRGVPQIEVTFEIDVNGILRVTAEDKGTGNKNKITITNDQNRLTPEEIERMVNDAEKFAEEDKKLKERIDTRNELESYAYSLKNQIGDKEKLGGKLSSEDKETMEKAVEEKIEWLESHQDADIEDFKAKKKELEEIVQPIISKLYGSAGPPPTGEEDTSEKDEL

[3] = target: T2, biotinylated AviTag-haBiP(28-635)^T229A-V461F (Chinese hamster, UniProt G3I8R9 28-635, T229A | V461F, biotin on the AviTag); test: BLI; biotinylated BiP^T229A-V461F(28-635) immobilised on streptavidin biosensors and pre-saturated with ATP (2 mM); FICD His363Ala variants at 250 nM, without or with nucleotide (ATP 8 mM, ADP 2 mM); HKM plus 0.05% Triton X-100, 30 °C; settings: both partners purified
T2 construct: Chinese hamster BiP (haBiP), aa 28-635; the assay tells the nucleotide state; also called BiP^T229A-V461F:Apo; BiP:ATP; not shown: GST, N-terminal, cleaved; AviTag, N-terminal, kept
T2 sequence (G3I8R9 28-635 T229A/V461F): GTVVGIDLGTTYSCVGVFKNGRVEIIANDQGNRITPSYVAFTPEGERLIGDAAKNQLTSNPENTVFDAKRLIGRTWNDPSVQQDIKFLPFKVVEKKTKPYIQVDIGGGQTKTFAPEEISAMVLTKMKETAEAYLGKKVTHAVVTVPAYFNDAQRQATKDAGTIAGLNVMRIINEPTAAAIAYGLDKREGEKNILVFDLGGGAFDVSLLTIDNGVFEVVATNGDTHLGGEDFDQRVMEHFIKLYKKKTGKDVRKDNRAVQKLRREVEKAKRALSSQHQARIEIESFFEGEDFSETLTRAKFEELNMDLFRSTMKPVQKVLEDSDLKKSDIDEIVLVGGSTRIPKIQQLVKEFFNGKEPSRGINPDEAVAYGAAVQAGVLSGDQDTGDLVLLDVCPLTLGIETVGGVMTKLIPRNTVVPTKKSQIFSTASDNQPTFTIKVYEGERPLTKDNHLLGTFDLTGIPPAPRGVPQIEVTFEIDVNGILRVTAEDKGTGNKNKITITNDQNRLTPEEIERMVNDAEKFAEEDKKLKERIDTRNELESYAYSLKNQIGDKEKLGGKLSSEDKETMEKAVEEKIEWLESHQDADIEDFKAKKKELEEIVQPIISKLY

[4] = target: the molecule itself; test: AUC; fluorescence-detected sedimentation velocity, Oregon Green-labelled FICD 1.6 µM to 31 pM, 20 °C, 50 mM HEPES-KOH pH 7.4, 150 mM KCl, 10 mM MgCl2, 1 mM CaCl2, 0.3 mM TCEP, 0.1% Tween-20, 0.15 mg/ml BSA; monomer-dimer fit (dimer to monomers)

B1: wild-type FICD (aa 104-445) (domain or fragment, human, UniProt Q9BVA6 104-445, looked up)
chain: LEARAALNQALEMKRQGKREKAQKLFMHALKMDPDFVDALTEFGIFSEEDKDIIQADYLYTRALTISPYHEKALVNRDRTLPLVEEIDQRYFSIIDSKVKKVMSIPKGNSALRRVMEETYYHHIYHTVAIEGNTLTLSEIRHILETRYAVPGKSLEEQNEVIGMHAAMKYINTTLVSRIGSVTISDVLEIHRRVLGYVDPVEAGRFRTTQVLVGHHIPPHPQDVEKQMQEFVQWLNSEEAMNLHPVEFAALAHYKLVYIHPFIDGNGRTSRLLMNLILMQAGYPPITIRKEQRSDYYHVLEAANEGDVRPFIRFIAKCTETTLDTLLFATTEYSVALPEAQP
notes: human FICD (HYPE), aa 104-445; Dimer by SEC, AUC and crystal structure; also called HYPE; dFICD; source: E. coli T7 Express lysY/I^q, purified (Ni-NTA, on-column Ulp1 cleavage, anion exchange, SEC); not shown: His6, N-terminal, cleaved; Smt3, N-terminal, cleaved
binding result [1]: binds

B2: non-oxidised FICD^A252C-C421S (aa 104-445) (domain or fragment, human, UniProt Q9BVA6 104-445, looked up)
chain: LEARAALNQALEMKRQGKREKAQKLFMHALKMDPDFVDALTEFGIFSEEDKDIIQADYLYTRALTISPYHEKALVNRDRTLPLVEEIDQRYFSIIDSKVKKVMSIPKGNSALRRVMEETYYHHIYHTVAIEGNTLTLSEIRHILETRYCVPGKSLEEQNEVIGMHAAMKYINTTLVSRIGSVTISDVLEIHRRVLGYVDPVEAGRFRTTQVLVGHHIPPHPQDVEKQMQEFVQWLNSEEAMNLHPVEFAALAHYKLVYIHPFIDGNGRTSRLLMNLILMQAGYPPITIRKEQRSDYYHVLEAANEGDVRPFIRFIAKSTETTLDTLLFATTEYSVALPEAQP
notes: human FICD (HYPE), aa 104-445; also called non-disulphide-bonded FICD^A252C-C421S; UK 2219; source: E. coli, purified; separate preparation not subjected to oxidation with glutathione; not shown: His6, N-terminal, cleaved; Smt3, N-terminal, cleaved
binding result [1]: binds

B3: FICD^K256S (aa 104-445) (domain or fragment, human, UniProt Q9BVA6 104-445, looked up)
chain: LEARAALNQALEMKRQGKREKAQKLFMHALKMDPDFVDALTEFGIFSEEDKDIIQADYLYTRALTISPYHEKALVNRDRTLPLVEEIDQRYFSIIDSKVKKVMSIPKGNSALRRVMEETYYHHIYHTVAIEGNTLTLSEIRHILETRYAVPGSSLEEQNEVIGMHAAMKYINTTLVSRIGSVTISDVLEIHRRVLGYVDPVEAGRFRTTQVLVGHHIPPHPQDVEKQMQEFVQWLNSEEAMNLHPVEFAALAHYKLVYIHPFIDGNGRTSRLLMNLILMQAGYPPITIRKEQRSDYYHVLEAANEGDVRPFIRFIAKCTETTLDTLLFATTEYSVALPEAQP
notes: human FICD (HYPE), aa 104-445; also called Lys256Ser; dimer relay mutant; source: E. coli T7 Express lysY/I^q, purified (Ni-NTA, on-column Ulp1 cleavage, anion exchange, SEC); not shown: His6, N-terminal, cleaved; Smt3, N-terminal, cleaved
Kd [1]: < 400 nM

B4: FICD^L258D-H363A (aa 104-445) (domain or fragment, human, UniProt Q9BVA6 104-445, looked up)
chain: LEARAALNQALEMKRQGKREKAQKLFMHALKMDPDFVDALTEFGIFSEEDKDIIQADYLYTRALTISPYHEKALVNRDRTLPLVEEIDQRYFSIIDSKVKKVMSIPKGNSALRRVMEETYYHHIYHTVAIEGNTLTLSEIRHILETRYAVPGKSDEEQNEVIGMHAAMKYINTTLVSRIGSVTISDVLEIHRRVLGYVDPVEAGRFRTTQVLVGHHIPPHPQDVEKQMQEFVQWLNSEEAMNLHPVEFAALAHYKLVYIAPFIDGNGRTSRLLMNLILMQAGYPPITIRKEQRSDYYHVLEAANEGDVRPFIRFIAKCTETTLDTLLFATTEYSVALPEAQP
notes: human FICD (HYPE), aa 104-445; also called mFICD^H363A; source: E. coli T7 Express lysY/I^q, purified (Ni-NTA, on-column Ulp1 cleavage, anion exchange, SEC); not shown: His6, N-terminal, cleaved; Smt3, N-terminal, cleaved
binding result [2]: binds
binding result [3]: binds

B5: Oregon Green-labelled FICD^NC (domain or fragment, human)
chain: CLEARAALNQALEMKRQGKREKAQKLFMHALKMDPDFVDALTEFGIFSEEDKDIIQADYLYTRALTISPYHEKALVNRDRTLPLVEEIDQRYFSIIDSKVKKVMSIPKGNSALRRVMEETYYHHIYHTVAIEGNTLTLSEIRHILETRYAVPGKSLEEQNEVIGMHAAMKYINTTLVSRIGSVTISDVLEIHRRVLGYVDPVEAGRFRTTQVLVGHHIPPHPQDVEKQMQEFVQWLNSEEAMNLHPVEFAALAHYKLVYIHPFIDGNGRTSRLLMNLILMQAGYPPITIRKEQRSDYYHVLEAANEGDVRPFIRFIAKCTETTLDTLLFATTEYSVALPEAQP
modifications: Oregon Green 488 on the added N-terminal cysteine (labelling efficiency 74%)
notes: N-terminal cysteine added for site-specific labelling, told in words only; human FICD (HYPE), aa 104-445 (purified 'as described above'); also called UK 2339; wild-type (red); source: E. coli, purified (Ni-NTA, anion exchange, SEC), labelled with Oregon Green 488-iodoacetamide; not shown: His6, N-terminal, cleaved; Smt3, N-terminal, cleaved
Kd [4]: 1.2 nM

From doi:10.1101/595835, “An oligomeric state-dependent switch in FICD regulates AMPylation and deAMPylation of the chaperone BiP” (bioRxiv, 2019)
